Key:
[1] = target: GST-Impα (Rch1) (human, UniProt P52292 1-529); assay: GST pull-down of in vitro translated 35S-labelled protein (0.25% NP40), autoradiography
[2] = target: T1, GST-impβ (UniProt Q14974 1-876); assay: as above
T1 construct: also called Imps
T1 sequence (Q14974 whole entry): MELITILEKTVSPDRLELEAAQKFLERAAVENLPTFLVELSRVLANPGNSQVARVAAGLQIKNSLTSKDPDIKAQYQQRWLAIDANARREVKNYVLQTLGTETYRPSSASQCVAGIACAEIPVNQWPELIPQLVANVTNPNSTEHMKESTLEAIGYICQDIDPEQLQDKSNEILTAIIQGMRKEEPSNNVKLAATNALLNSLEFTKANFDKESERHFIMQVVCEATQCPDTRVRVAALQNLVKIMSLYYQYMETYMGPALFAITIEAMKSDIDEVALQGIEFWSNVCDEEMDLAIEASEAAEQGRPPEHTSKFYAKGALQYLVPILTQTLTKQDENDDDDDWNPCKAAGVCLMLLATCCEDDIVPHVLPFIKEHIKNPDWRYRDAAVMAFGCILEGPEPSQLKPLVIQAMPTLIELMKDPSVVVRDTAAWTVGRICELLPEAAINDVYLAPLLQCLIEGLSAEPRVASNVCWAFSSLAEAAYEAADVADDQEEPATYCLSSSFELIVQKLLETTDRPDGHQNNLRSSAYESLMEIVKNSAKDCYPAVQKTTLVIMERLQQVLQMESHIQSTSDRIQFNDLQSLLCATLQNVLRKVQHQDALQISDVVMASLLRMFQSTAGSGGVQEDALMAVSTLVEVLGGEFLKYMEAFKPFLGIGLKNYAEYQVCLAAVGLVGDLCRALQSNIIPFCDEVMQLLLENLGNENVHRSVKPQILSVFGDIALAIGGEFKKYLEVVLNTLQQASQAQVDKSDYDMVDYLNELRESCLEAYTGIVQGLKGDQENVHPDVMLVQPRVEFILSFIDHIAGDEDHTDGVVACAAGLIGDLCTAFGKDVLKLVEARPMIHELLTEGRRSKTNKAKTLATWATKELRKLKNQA

B1: T7-CAT (enzyme)
chain: MEKKITGYTTVDISQWHRKEHFEAFQSVAQCTYNQTVQLDITAFLKTVKKNKHKFYPAFIHILARLMNAHPEFRMAMKDGELVIWDSVHPCYTVFHEQTETFSSLWSEYHDDFRQFLHIYSQDVACYGENLAYFPKGFIENMFFVSANPWVSFTSFDLNVANMDNFFAPVFTMGKYYTQGDKVLMPLAIQVHHAVCDGFHVGRMLNELQQYCDEWQGGA
- binding result [1]: no binding
- binding result [2]: no binding

Reference: patent publication US20070203325A1 (published 2007)
